Patent US20230095569A1 (ANTENGENE BIOLOGICS, published 2023)

B1: chAb17 (antibody, V domains shown)
VH: QVQLKESGPGLVAPSQSLSITCTVSGFSLTSYAISWVRQPPGKGLEWLGEIWTGGGTNYNSALKSRLSISKDNSKSQVFLKMNSLQTDDTARYYCGRLSYGNSLDYWGQGTTLTVSS
VL: DIVMTQSPSSLTVTAGEKVTMSCKSSQSLLNSGNQKNYLTWYQQKPGQPPKLLIYWASTRESGVPDRFTGSGSGTDFTLTVSSVQAEDLAVYYCQNNFIYPLTFGPGTKLELK
B2: Ab10 (antibody, V domains shown)
VH: EVMLVESGGGLVKPGGSLKLSCAASGFTFSSYTMSWVRQTPEKRLEWVATISVIGGNTYYVDSVKGRFTISRDKAKNTLYLQMSSLRSEDTALYYCARLGQTQRNAMDYWGQGTSVTVSS
VL: DIVMTQSPSSLSVSAGEKVTMSCKSSQSLLNSGNQKNYLAWYQQKPGQPPKLLIYGASTRESGVPDRFTGSGSGTDFTLTISSVQAEDLAVYYCQNDYSYPLTFGAGTKLELK
notes: mouse monoclonal (hybridoma)
B3: chAb10 (antibody, V domains shown)
VH: EVMLVESGGGLVKPGGSLKLSCAASGFTFSSYTMSWVRQTPEKRLEWVATISVIGGNTYYVDSVKGRFTISRDKAKNTLYLQMSSLRSEDTALYYCARLGQTQRNAMDYWGQGTSVTVSS
VL: DIVMTQSPSSLSVSAGEKVTMSCKSSQSLLNSGNQKNYLAWYQQKPGQPPKLLIYGASTRESGVPDRFTGSGSGTDFTLTISSVQAEDLAVYYCQNDYSYPLTFGAGTKLELK
B4: chAb15 (antibody, V domains shown)
VH: EVMLVESGGDLVKPGGSLKLSCAASGFTFSTYTMSWVRQTPEKRLEWVATIVGGGGYTYYLDSVKGRFTISRDNAKNTLYLQMISLRSEDTALYYCARMGLTQRNALDYWGQGTSITVSS
VL: DIVMTQSPSSLSVSEGEKVTLNCKSSQSLFNSGNQKNYLAWYQQKPGQPPKLLIYGASTRESGVPDRFTGSGFGTDFTLTISSVQAEDLAVYYCQNDHTYPLTFGAGAKLELK
B5: chAb05 (antibody, V domains shown)
VH: DVKLVESGEDLVKPGGSLKLSCAASGFTFSNYAMSWVRQTPEKRLEWVAYVSSGGDYIYYADTVKGRFIISRDNARNTLYLQMNSLRSEDTAMYYCARVYFGNSLDYWGQGTTLTVSS
VL: DIVMTQSPSSLTVTAGEKVTLSCKSSQSLLNGGNQKNYLTWYQQRPGQPPKLLIYWASTRESGVPDRFTGSGSGTDFTLIISSVQAEDLAVYYCQNDYYYPWTFGGGTKLEIK
B6: chAb20 (antibody, V domains shown)
VH: EVMLVESGGGLVKPGGSLKLSCVASGFTFSSYTMSWVRQTPEKRLEWVATIIGGYGNTYYSDSVKGRITISRDSAKNTLYLQMISLRSEDTALYYCTRLGQTQRNAMDYWGQGTSVTVSS
VL: DILMTQSPSSLSVSAGEKVTMNCKSSQSLLNSGNQKNYLAWYQQKPGQPPKLLIYGASTRESGVPDRFTGSGSGTDFTLTISSVQAEDLAVYYCQNDYYYPFTFGAGTKLEL

How the values were obtained:
[1] = molecular target: T1, human Claudin18.2 (CLDN18.2) (human, UniProt P56856 1-261); experiment: FACS on GAXC031 cells, antibody at 50 µg/ml
T1 construct: the cell line is named under assay; also called human Claudine18.2; hClaudin18.2

[2] = molecular target: T1, human Claudin18.2 (CLDN18.2); experiment: cell-based or functional assay
[3] = molecular target: T1, human Claudin18.2 (CLDN18.2); experiment: FACS on CHOK1-18.2 cells, antibody at 50 µg/ml
[4] = molecular target: T1, human Claudin18.2 (CLDN18.2); experiment: cell-based or functional assay; remark: listed apart in the source
[5] = molecular target: T1, human Claudin18.2 (CLDN18.2); experiment: cell-based or functional assay; remark: listed apart in the source
[6] = molecular target: T1, human Claudin18.2 (CLDN18.2); experiment: FACS on GAXC031 cells
[7] = molecular target: T1, human Claudin18.2 (CLDN18.2); experiment: FACS on CHOK1-18.2 cells;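 as to FACS MFI: antibody binding to the cells detected with a fluorescently labelled secondary antibody and read out as median fluorescence intensity by flow cytometry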
[8] = molecular target: T2, human Claudin18.1 (CLDN18.1) (human, UniProt P56856 1-261); experiment: FACS (FIGS. 1A and 1B)
T2 construct: whole, on cells; also called human Claudine18.1

[9] = molecular target: T1, human Claudin18.2 (CLDN18.2); experiment: FACS on CHOK1-18.2 cells; remark: listed apart in the source;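 as to FACS MFI: antibody binding to the cells detected with a fluorescently labelled secondary antibody and read out as median fluorescence intensity by flow cytometry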
Procedure: (§1) The specificity and cross-reactivity of these subclones were confirmed with FACs analysis. […] Fluorescent dye-conjugated secondary antibody was used to detect the binding of the primary antibody with the cells. Median fluorescence intensity (MFI) was measured by FACs analysis.

[10] = molecular target: T2, human Claudin18.1 (CLDN18.1); experiment: FACS on CHOK1-18.1 cells;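 also: test antibody binding to the cells detected by flow cytometry using a fluorescent dye-labelled secondary antibody, read out as median fluorescence intensity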
Procedure: as §1

| Binder | MAX MFI [1] | ADCC EC50 [2] | Max tumor cell killing (% of control), ADCC [2] | MAX MFI [3] | CDC EC50 [4] | Max CDC induced tumor cell killing (% of control) [4] | IC50 of indirect ADC cytotoxicity [5] | Max inhibition % [5] | EC50 [6] | EC50 [7] | binding result [8] | FACS MFI [9] | FACS MFI [10] |
| --- | --- | --- | --- | --- | --- | --- | --- | --- | --- | --- | --- | --- | --- |
| B1 | 4230 | 2.46 nM | 60.6 % of control | 83800 | 9.93 nM | 70.8 % of control | 0.88 nM | 92.4% | 94.2 nM | 4.74 nM | – | – | – |
| B2 | – | – | – | – | – | – | – | – | – | – | no binding | 8400 | 80.8 |
| B3 | 6940 | 1.68 nM | 55.2 % of control | 80400 | 2.69 nM | 82.7 % of control | 0.24 nM | 92.8% | 29.2 nM | 2.27 nM | – | – | – |
| B4 | 6110 | 2.65 nM | 36.5 % of control | 94000 | 8.15 nM | 77.4 % of control | 0.38 nM | 92.4% | 31.9 nM | 4.64 nM | – | – | – |
| B5 | 4600 | 5.92 nM | 57.9 % of control | 83900 | 17.8 nM | 78.9 % of control | 0.99 nM | 92.3% | 73.8 nM | 5 nM | – | – | – |
| B6 | 6260 | 4.14 nM | 62.9 % of control | 65700 | 8.82 nM | 73 % of control | 0.47 nM | 92.8% | 42.9 nM | 3.88 nM | – | – | – |
